Measured values from publication PMC12720421, “Disordered N‐termini enhance the thermostability of SGNH‐hydrolase family polyesterases” (Protein Science : A Publication of the Protein Society, 2025).
Where “and” joins values, the source holds several entries; their conditions need not be identical. Equal values may be shown once. Values belong to the molecule of their own block, whether it stands above or below them.

Key:
Pmt_EST = target: T1, Pmt_EST (Zestomonas thermotolerans, UniProt Z9LQW2KWT1); assay: pNP release at […] nm, specific activity; assay type: biochemical; conditions: 50 mM Tris pH 8.5, 5% methanol
T1 sequence (Z9LQW2KWT1 41-245): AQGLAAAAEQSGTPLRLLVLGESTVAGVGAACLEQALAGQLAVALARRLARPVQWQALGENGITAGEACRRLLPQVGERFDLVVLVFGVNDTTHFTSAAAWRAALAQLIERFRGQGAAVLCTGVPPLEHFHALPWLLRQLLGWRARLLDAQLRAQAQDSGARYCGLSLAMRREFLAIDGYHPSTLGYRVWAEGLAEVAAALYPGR

Ft_EST = target: T2, Ft_EST (Fontimonas thermophila, UniProt A0A1I2JG86); assay: pNP release at […] nm, specific activity; assay type: biochemical; conditions: 50 mM Tris pH 8.5, 5% methanol
T2 construct: gene SAMN04488120_10748
T2 sequence (A0A1I2JG86 25-217): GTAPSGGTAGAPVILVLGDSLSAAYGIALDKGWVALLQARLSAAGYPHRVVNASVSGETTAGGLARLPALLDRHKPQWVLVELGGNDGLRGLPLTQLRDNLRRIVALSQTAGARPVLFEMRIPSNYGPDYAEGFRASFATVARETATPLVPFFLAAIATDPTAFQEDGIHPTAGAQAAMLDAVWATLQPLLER

[1] = target: PpEST from Pseudomonas oleovorans (Pseudomonas oleovorans); assay: SEC; analytical SEC on a Superdex 200 Increase 10/300 GL column, with a BioRad Gel Filtration Standard; self-association of each purified esterase
[2] = tested on: CCCC(=O)Oc1ccc([N+](=O)[O-])cc1; assay: purified protein; assay type: biochemical, Maribacter thermophilus; conditions: 50 mM Tris pH 8.0, room temperature, 5% methanol, 0.05-0.1 μM enzyme
[3] = target: Rp_EST from Rhodothermus profundi (Rhodothermus profundi); assay: SEC; analytical SEC on a Superdex 200 Increase 10/300 GL column, with a BioRad Gel Filtration Standard; self-association of each purified esterase
purified protein [4] = substrate: CCCC(=O)Oc1ccc([N+](=O)[O-])cc1; assay: purified protein; assay type: biochemical, Rhodothermus profundi; conditions: 50 mM Tris pH 8.0, room temperature, 5% methanol, 0.05-0.1 μM enzyme
purified protein [5] = substrate: CCCC(=O)Oc1ccc([N+](=O)[O-])cc1; assay: purified protein; assay type: biochemical, Chloracidobacterium thermophilum; conditions: 50 mM Tris pH 8.0, room temperature, 5% methanol, 0.05-0.1 μM enzyme
purified protein [6] = substrate: CCCC(=O)Oc1ccc([N+](=O)[O-])cc1; assay: purified protein; assay type: biochemical, Altericroceibacterium indicum; conditions: 50 mM Tris pH 8.0, room temperature, 5% methanol, 0.05-0.1 μM enzyme
purified protein [7] = substrate: CCCC(=O)Oc1ccc([N+](=O)[O-])cc1; assay: purified protein; assay type: biochemical, Ectopseudomonas oleovorans; conditions: 50 mM Tris pH 8.0, room temperature, 5% methanol, 0.05-0.1 μM enzyme

Molecule: CCCC(=O)Oc1ccc([N+](=O)[O-])cc1 [pNP-butyrate]
pNP release at 410 nm, specific activity (Pmt_EST): showed a clear preference for mid‐chain length esters, particularly pNP‐butyrate (C4)
pNP release at 410 nm, specific activity (Ft_EST): showed a clear preference for mid‐chain length esters, particularly pNP‐butyrate (C4)

stoichiometry N [1]: 2
Molecule: PpEST from Pseudomonas oleovorans (enzyme)

Molecule: Mt_EST (Maribacter thermophilus)
Km [2]: 453 ± 81 µM
kcat [2]: 54.4 ± 4.4 s⁻¹
kcat/Km [2]: 120000 M⁻¹ s⁻¹

stoichiometry N [3]: 2 and 4
Molecule: Rp_EST from Rhodothermus profundi (enzyme)

B1: Rp_EST (Rhodothermus profundi) (protein)
chain: QDTSKSSASSSEGSPDTTAKTPTHAARAAQPITVLVLGNSLAAGYGLSPDEAFPAILQRKVDSLGWPVRILNAGLSGETSAGGLRRIDWLLRERIDVLILELGANDGLRGIDPEVTRQNLQGIIDKVRARYPEADIILAGMQLPPNLGPAYTAAFRALYPELARANNAYLIPFLLEGVGGVPELNQADGIHPTAEGQRIVAENVWRVLRPVLERRLGLA
Km (purified protein [4]): 246 ± 72 µM
kcat (purified protein [4]): 12 ± 1.3 s⁻¹
kcat/Km (purified protein [4]): 49000 M⁻¹ s⁻¹

B2: shRp_EST (Rhodothermus profundi) (protein)
chain: ITVLVLGNSLAAGYGLSPDEAFPAILQRKVDSLGWPVRILNAGLSGETSAGGLRRIDWLLRERIDVLILELGANDGLRGIDPEVTRQNLQGIIDKVRARYPEADIILAGMQLPPNLGPAYTAAFRALYPELARANNAYLIPFLLEGVGGVPELNQADGIHPTAEGQRIVAENVWRVLRPVLERRLGLA
notes: N-terminal extension truncated to align with AlinE4 and PpEST (borders not in main text), C-terminal 6xHis tag, E. coli, monomer
Km (purified protein [4]): 257 ± 43 µM
kcat (purified protein [4]): 25 ± 1.6 s⁻¹
kcat/Km (purified protein [4]): 97000 M⁻¹ s⁻¹

B3: Ct_EST (Chloracidobacterium thermophilum B) (protein)
chain: GGCSRTGTEAPENLPVLAPAPTDAAPTARPRIVVLGDSLTAGFGLPREASYPTVLQKKLDAAGLNYQVINAGISGDTSAGGVERLDWSLDGDVRIVILALGANDGLRGLPLTQMEANLRTIIERARARGAQVILAGLKAPAEAGPDYGAQFEAVYRKLAQQYRLPLIPSLLEGVAGREELNQEDGIHPNARGAAIVADNVWKVLEPVARQQLAQSQSNPDAPPAAKPAGAR
Km (purified protein [5]): 791 ± 178 µM
kcat (purified protein [5]): 38.5 ± 4.8 s⁻¹
kcat/Km (purified protein [5]): 49000 M⁻¹ s⁻¹

B4: shCt_EST (Chloracidobacterium thermophilum B) (protein)
chain: TARPRIVVLGDSLTAGFGLPREASYPTVLQKKLDAAGLNYQVINAGISGDTSAGGVERLDWSLDGDVRIVILALGANDGLRGLPLTQMEANLRTIIERARARGAQVILAGLKAPAEAGPDYGAQFEAVYRKLAQQYRLPLIPSLLEGVAGREELNQEDGIHPNARGAAIVADNVWKVLEPVARQQLAQSQSNPDAPPAAKPAGAR
notes: as for B2
Km (purified protein [5]): 646 ± 139 µM
kcat (purified protein [5]): 33.3 ± 3.7 s⁻¹
kcat/Km (purified protein [5]): 52000 M⁻¹ s⁻¹

B5: AlinE4 (Altericroceibacterium indicum) (protein)
chain: SMGESRVILAFGDSLFAGYGLDKGESYPAKLETALRSHGINARIINAGVSGDTTAAGLQRIKFVLDSQPDKPELAIVELGGNDLLRGLSPAEARQNLSGILEELQRRKIPILLMGMRAPPNLGAKYQREFDGIYPYLAEKYDAKLVPFFLEAVADRPDLIQKDHVHPTARGVEELVSATSNAVAKALPAKK
Km (purified protein [6]): 194 ± 55 µM
kcat (purified protein [6]): 15 ± 1.4 s⁻¹
kcat/Km (purified protein [6]): 77000 M⁻¹ s⁻¹

B6: PpEST (Ectopseudomonas oleovorans CECT 5344) (protein)
chain: GTLLVVGDSISAAFGLDSRQGWVALLEKRLSEEGFEHSVVNASISGDTSAGGAARLSALLAEHKPELVIIELGGNDGLRGQPPAQLQQNLASMVEQSQQAGAKVLLLGMKLPPNYGVRYTTAFAQVFTDLAEQKQVSLVPFFLEGVGGVPGMMQADGIHPAEAAQEILLDNVWPTLKPML
Km (purified protein [7]): 242 ± 49 µM
kcat (purified protein [7]): 14 ± 1 s⁻¹
kcat/Km (purified protein [7]): 58000 M⁻¹ s⁻¹
